Values quoted from earlier work in patent US11147890B2, “Stimuli-responsive particles encapsulating a gas and methods of use” (Children's Medical Center Corporation, priority 2017, dated 2021).

Details: per gram basis

hemoglobin
oxygen carrying capacity: 0.17 mL/g
